Results on six molecules are retold here after patent publication US20260015434A1, “ANTIBODY MATERIALS AND METHODS TARGETING MICROBIAL POLYSACCHARIDES” (priority 2022, published 2026).

B1: ADI-45379: Original clone from screen; HC SEQ ID NO: 1, LC SEQ ID NO: 2 (antibody, listed as Homo sapiens, V domains shown)
VH: EVQLLESGGGLVQPGGSLRLSCAVSGFPFSSYWMSWVRQAPGKGLEWVANIKEDGSEKYYVDSVKGRFTISRDNAKNSLYLQMNSLRAEDTAVYYCATDPDVGLSDSWGQGTLVTVSS
VL: ETTLTQSPATLSLSPGDRATHSCRASQSVSRSYLAWYQQKPGQTPRLFIYGASNRATGIPDRFSGSGSGTYFTLTISRLEPEDFAVYYCQQYDSAPDTFGQGTRLEIK
B2: TG10 LC Y55A: TG10 HC (SEQ ID NO: 3) with TG10 LC Y55A (SEQ ID NO: 40) (antibody, V domains shown)
VH: EVQLVESGGGLVQPGGSLRLSCAVSGFPFSSYWMSWVRQAPGKGLEWVANIKEDGSEKYYVDSVKGRFTISRDNAKNSLYLQMNSLRAEDTAVYYCATDPDVGLSDSWGQGTLVTVSS
VL: EIVLTQSPGTLSLSPGDRATHSCRASQSVSRSYLAWYQQKPGQTPRLFIAGASNRATGIPDRFSGSGSGTYFTLTISRLEPEDFAVYYCQQYDSAPDTFGQGTRLEIK
modifications: TG10 Heavy Chain Variable Region; Site directed mutation of TG10 LC Variable Region
B3: TG10 V110R: TG10 HC V110R (SEQ ID NO: 39) with TG10 LC (SEQ ID NO: 12) (antibody, V domains shown)
VH: EVQLVESGGGLVQPGGSLRLSCAVSGFPFSSYWMSWVRQAPGKGLEWVANIKEDGSEKYYVDSVKGRFTISRDNAKNSLYLQMNSLRAEDTAVYYCATDPDRGLSDSWGQGTLVTVSS
VL: EIVLTQSPGTLSLSPGDRATHSCRASQSVSRSYLAWYQQKPGQTPRLFIYGASNRATGIPDRFSGSGSGTYFTLTISRLEPEDFAVYYCQQYDSAPDTFGQGTRLEIK
modifications: Site directed mutation of TG10 HC Variable Region; TG10 Light Chain Variable Region
B4: TG10 P108A: TG10 HC P108A (SEQ ID NO: 36) with TG10 LC (SEQ ID NO: 12) (antibody, V domains shown)
VH: EVQLVESGGGLVQPGGSLRLSCAVSGFPFSSYWMSWVRQAPGKGLEWVANIKEDGSEKYYVDSVKGRFTISRDNAKNSLYLQMNSLRAEDTAVYYCATDADVGLSDSWGQGTLVTVSS
VL: EIVLTQSPGTLSLSPGDRATHSCRASQSVSRSYLAWYQQKPGQTPRLFIYGASNRATGIPDRFSGSGSGTYFTLTISRLEPEDFAVYYCQQYDSAPDTFGQGTRLEIK
modifications: Site directed mutation of TG10 HC Variable Region; TG10 Light Chain Variable Region
B5: TG10 D116A: TG10 HC D116A (SEQ ID NO: 34) with TG10 LC (SEQ ID NO: 12) (antibody, V domains shown)
VH: EVQLVESGGGLVQPGGSLRLSCAVSGFPFSSYWMSWVRQAPGKGLEWVANIKEDGSEKYYVDSVKGRFTISRDNAKNSLYLQMNSLRAEDTAVYYCATDPDVGLSASWGQGTLVTVSS
VL: EIVLTQSPGTLSLSPGDRATHSCRASQSVSRSYLAWYQQKPGQTPRLFIYGASNRATGIPDRFSGSGSGTYFTLTISRLEPEDFAVYYCQQYDSAPDTFGQGTRLEIK
modifications: Site directed mutation of TG10 HC Variable Region; TG10 Light Chain Variable Region
B6: TG10 Y37A: TG10 HC Y37A (SEQ ID NO: 31) with TG10 LC (SEQ ID NO: 12) (antibody, V domains shown)
VH: EVQLVESGGGLVQPGGSLRLSCAVSGFPFSSAWMSWVRQAPGKGLEWVANIKEDGSEKYYVDSVKGRFTISRDNAKNSLYLQMNSLRAEDTAVYYCATDPDVGLSDSWGQGTLVTVSS
VL: EIVLTQSPGTLSLSPGDRATHSCRASQSVSRSYLAWYQQKPGQTPRLFIYGASNRATGIPDRFSGSGSGTYFTLTISRLEPEDFAVYYCQQYDSAPDTFGQGTRLEIK
modifications: Site directed mutation of TG10 HC Variable Region; TG10 Light Chain Variable Region

For this assay, the system named is PNAG conjugates on the array (dPNAG, PNAG and intermediate levels of deacetylation). The assay can be described thus: Neoglycoprotein (glycan) microarray binding, 816-component array. The settings on record: ability to bind both dPNAG and PNAG and intermediate levels of deacetylation.
B1: the “PNAG Binding on Array” value was “Yes”.

Turning to B2, the “PNAG Binding on Array” value is given as “Yes”. Take B3: the “PNAG Binding on Array” value is “Yes”. With B4, the “PNAG Binding on Array” value is “Yes”. Consider B5, for which the “PNAG Binding on Array” value is listed as “Yes”.

As for B6, the “PNAG Binding on Array” value is “Yes”.
